We go through 102 substances from the supplement of paper PMC11502859.

This data set deals with HEK293T. In words: median enrichment of reporter reads in eGFP-reduced (low/intermediate) vs eGFP-high sorted cells (eGFP-extension fusion abundance) (ratio); higher = stronger loss of eGFP-fusion protein abundance (more destabilising extension).
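Further: lentiviral eGFP-IRES-mCherry reporter pool sorted by FACS 96 h post-transduction, gated on mCherry-high cells, Illumina read counts normalized per million, median across four biological replicates.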

ZNF28, sequence (chain, as listed by the source): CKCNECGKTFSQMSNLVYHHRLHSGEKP

As for YTPNNLLPPLAPVAYISS [TMEM169], the median enrichment was determined as 11.3.
The result for “RKEKQLLPLSWDRGVGKSAGPHGAWGSQTEAPQNFLQCLRDAWMWPLPLLLTLKDSQTH [LY9]” reads 4.97; that for QSTF [ST8SIA4], 0.477; that for KKKLSHREKNI [OGA], 0.598.
The result for WARRASQRSGQAVRPWPSVC [INMT] reads 9.99; that for RGPPGLWGERM [CHRNB4], 1.36.
The value for AAAAA [Ala05] was 4.35.
Regarding YALDKNLNRKNNSKAYLMKQ [CYLC2], the median enrichment amounted to 2.34.
The value for RHVIP [NPFF] was 0.57.
The result for RSNFSFTVLSCLHRKSQYNFHC [SEC23IP] reads 2.62; that for LIPQPGLPVHLLTLLKSSIVVIL [CD46], 10.7.
The value for “LRRRMSLRAPSWSGPRHPGTSALPPPALLHHMSS [ADHFE1]” was 18.5; that for “SAHQRAPSPRIAAPTQPGAPDPPGGLRGNRRREGKGPPSPSRPQGAATDWRAAEGGRARAPRGRTIRAPAPRPVPPQARA [TLX3]” was 3.75.
Regarding “LSLLIQKWGQFRKNYLLFAWWFFIMDLAQKKNC [GART]”, the median enrichment was 11.7.
For the substance “YIFYSHSVVQSSALGIYLCSQRSNSHLLYCLCLKEFESFLIFIIHLRTRDPCLAVWSKADYAAWRQDSDRASERAKSCQKETE [GABRA1]”, the median enrichment worked out at 10.4.
As for “WARTLNRTPVGPARTACSAGDGSDPWSSIAPHDIESRPVFALWEENGRESGQLSQSIRAGRT [ABCC6]”, the median enrichment was 7.78.
The value for WAGLRGMVRTSPP [NANS] was 6.83; that for RPRPGPALPPGAPTCNKCSEAGK [CYBA] was 0.134.
The result for KLDLII [OR4S2] reads 1.99; that for DDDDD [Asp05], 0.224; that for CVSYSSSMLGIPTAATMILVPERAMLLFQLV [MTMR8], 23.9.
The result for RPLLRVCPAPFHQ [DYRK4] reads 1.43; that for RRRRR [Arg05], 0.5; that for YVDLRQTLGGVKESHRYPKE [MAGEH1], 3.34.
With CVAGVEVLIEYDRRMTITLSAQCG [OR10H2], the median enrichment is 6.41.
On to TMNNEEDLLRSL [Degron FEM1C], for which the median enrichment turned out to be 0.347.
In the case of “LDRTCLRGRRTLAWAQESEAAFLLRGPSGESGPRYHARTLRGPVSCRRVSTFPPNPGLTALRSARRARAETRVGCGELKEPIK [UQCC3]”, the median enrichment amounted to 3.74.
The value for YFMSFSISAADLC [DNAJC6] was 25.5; that for YKKVGTMRGRGL [Degron APPBP2] was 16.9.
The value for YEYA [BOD1L2] was 0.662; that for LQPTWSTRAGP [KRT36] was 0.897; that for “CAWSAHRLSSAFALLRCYRTLAPDVCSFTGCLICLLHPTGPPTSSDVFLIMSAMCPILLHALPPFPTTAEWPGTCLKCLFPIS [F11R]” was 6.63.
The result for STSAHILESYYS [ACADL] reads 0.545.
For “YEQGGLGWPSPGGCGWGQETQPTTAPVSSPHKAAWVCTVCKLQDTLPGDPRGHSYTLFTRKIQRSQ [C2orf50]”, the median enrichment amounted to 9.09.
For the substance GCVLSQIYLLD [HYPK], the median enrichment was found to be 11.9.
The value for “SARSAVSSQWILVNWWRLADTLEKPKPESLLFSLFSCLCSVSLNTTFSAMVCG [MRFAP1]” was 5.22; that for “LGSVPGWPVPITSYAHLPPPVFPPLDWWPLPWGRSPHVPAPGDRQRRQQAAFVAQQGALPSLLPSCFS [CST3]” was 4.44.
The value for “RGLGWAGARRAAGWPLGGQDGTVGTEVGGRGPSGLN [TNFRSF8]” was 6.62; that for KDS [RPAP1] was 0.532; that for “QCGSCDRGSSSAEPQTVLPCSMCLKAQGDIPLGWPLPPP [DIAPH1]” was 1.17.
Turning to “YGREARAAPAFLLQIWAAVARAVSPVAEPSGRCGNRRSSVAPVS [CPTP]”, the median enrichment was determined as 7.
The value for “SAEGKSGKMSFERCIPKASSGASGKSGPTSARPSSPSPAPPLVSSFIQQNLAGK [NKG7]” was 0.737; that for ZNF28 was 1.64.
The result for YRNLENYTCFSEIITEYT [ABCD3] reads 11.4; that for LNGSI [PHF20L1], 0.416; that for “YGSAKSLWDWKSGPGLPDRQPEDLPSTMHHGRGRSMKN [SLC39A14]”, 0.591.
The value for “STARIKNMFPCLSDTSLLDEARKIYMKILKIHIADFMEWTSCISTEKQQHNNTKILGTLK [CDKN1B]” was 38.1; that for WVAPPSWGEVPSRLRRRGARGRS [PHLDB3] was 16.2; that for RGAGTCDRLWWHH [NAGA] was 1.53.
Regarding LGLRVHTGWQEASKGS [SERPINH1], the median enrichment is 4.89.
Turning to RDCACI [CPSF3], the median enrichment came out at 0.439.
The result for EMCNLISLFHHNHDRW [C9orf72] reads 9.03.
The result for “IVGPKGKEGKSAPRLGPGTHTPPDHLGNSRALRSRMLTKSNIQSLVNQDAVSPSVWQSVALAAGKLKADFHSYVHVDIHFRSS [RNF150]” reads 4.94.
The value for EILSLAAICKGS [TET2] was 18.6; that for RAETSALLTLRDTTRLHGEV [CORO2A] was 6.49; that for CLL [ACSBG2] was 7.26.
With “WADPVGIRAAPSGAGTAGTAAILLLLVFFLLSKINCGNILVSCDVRCSFVVKFAIDIEIMTSVFPEIKHVSTQDFLDHSRKCQ [KISS1R]”, the median enrichment is 10.9.
For the substance LLLLLLLLL [Leu09], the median enrichment is 11.2.
Turning to QGIQGTAL [CXorf26], the median enrichment was 0.941.
The value for RNLNGHYKLSNST [ARMC4] was 1.99.
The value for SVLPSVTSNSGKRKLK [STARD13] was 0.451.
The result for QVISQSIYVLSNM [PSMA1] reads 7.19; that for LDVQDL [ZMPSTE24], 0.209.
As for YHCESITFSLSCSWTFCTENPGI [CREBBP], the median enrichment is 33.7.
The value for LEIPGFSDGPI [SLC39A2] was 0.676; that for YYYLQMKLTYTDLSSLMKKIRCYPIK [RBM11] was 13; that for “LCDCSKLWCKIPPVSSHLPDFYLGLARTSSPSYQPSLPPSSHWTPALALPLG [LY6G5C]” was 3.74.
The result for LRISQG [ESRRB] reads 1.67; that for “SCIAGLSSAASTECQAPHSAHPWALLRGPKTQEEERSACPLPPPLQYSLCAVV [SYCN]”, 10.8; that for “WGATSFSTTMLLHFPTPTRPPSSPPTPFSHSHPHHRSLDCWEWKPGGVMAQVL [RAMP2]”, 8.95.
For the substance AAAA [Ala04], the median enrichment was 11.6.
The value for LLK [HGF] was 1.66.
On to KKKEKKAKKKK [IQCA1], for which the median enrichment stood at 0.903.
The value for WGWGWTNNQARAEGFMERPLGDPR [S1PR2] was 3.36; that for “YTAQGSPTQAPTLLLLALLPASVQRTGRYWWEALCLAPQLPVWASKHNGPSRSLVETGVVVPNLPSALPLHRTQRPQALQGVL [AMIGO3]” was 8.02.
The result for EMALSPPRSWGQ [Degron APPBP2] reads 10.9.
For the substance SVAHSGKGVLCEHVEA [GATC], the median enrichment is 0.756.
The value for QYTF [PNISR] was 1.03.
The result for “LSVHWGPSVVPFVENLLHKALLNCLELGTSIPMETSPVWGTWRICQRLSDMGPWQFYTGKWSAPLGYTRLSVFSPSILFPLHM [NYNRIN]” reads 3.7; that for “YAATAKKNRVRKLLGWVDLGIFYLVKALYSHRRKIWDISIIYILI [RFPL3]”, 45.1; that for WQDLLTSS [VN1R4], 0.623.
The result for WLEWIYDVPLRRSISATILI [HMGCLL1] reads 12.2; that for “QSKQGRNVQVNNKSPHTLLTPWRQLLFRSFICLLQESFLPLT [SIRPD]”, 4.67.
With “SAPYWPAGPPPPAAGQLPNGPFQGLTLHPFSVDFLARAPSGGITDLMTTLALLPCRVQVLSPHFHLPAPRGPFPFMGLPPSDA [PCDH1]”, the median enrichment was 3.42.
The value for “YQVAELGPLGQGAQATSSFVVTKQGSPFPFLLPYFVQRTRVIYIYICICLYPSPHLSDSALGTQLWAARGAVPCGSSCVCVPS [SCAMP5]” was 8.36; that for “CGLGWAGARRAAGWPLGGQDGTVGTEVGGRGPSGLN [TNFRSF8]” was 5.21; that for “LAVWAPRGLALLPGLGEPRAALPWQRQDVGERSLVQ [GRK6]” was 3.3.
The result for SNNQQYSRSNQHHHVIMVLWHICNIKILN [ACOX2] reads 5.11; that for LDRTWEPGGWEGQG [SLC35G6], 0.429.
The value for “QLGPAWKASAPCTHTDRNFRDCGVETGAQALQRVALKL [RAB36]” was 7.77.
In the case of QACPAVNLHLEP [SEC16A], the median enrichment came out at 0.624.
“SGPPFGHHQVPKVPQEASTLHARPASISLSFPVWPSFEGHVRWRSQARQTLTRGLSSKRALGWTTENISSRGSYNKNTYLPAL [PLPP7]”: the median enrichment was 3.53.
The result for “ESHMRRTACSDQRAQRPEDKSGGDSMGMGVGCLRERTHGLGRGERCMGITFARAAYLKVTVSSGTAGDRYLLLQEINYPENST [LEXM]” reads 5.93.
The result for GSSC [KRTAP13-1] reads 0.297; that for ESSTLLLQWVQKLLRPVVK [MYLK3], 7; that for ETSSGQNRRVPNYVLKP [SLC10A2], 0.355.
Regarding “LPLKTVPLRDPKTLGIDTWASGRAQPWAGGLLRTQRCAWNHS [SLC4A3]”, the median enrichment was 31.
The result for “ESYNHMQLWDRSLVLGTIHTHTPSLCLWLTSQKTLVNDHSRILTRIHVTDLTQ [CPAMD8]” reads 15.9.
On to QEGQDLYSRLVQQRLMD [TAP2], for which the median enrichment amounted to 0.376.
The value for LTGLPTWLPT [AANAT] was 1.93; that for YLEYIFV [CEP192] was 4.56; that for “YASHLASWVCRSSRLAPSMYPGEIPARHPPPGPG [LSP1]” was 4.74.
